Numbering of substitutions follows the chain as printed. Numbers in names are those of the source.
B1: WT: non-mutated Candida antarctica lipase B (CALB), SEQ ID NO: 2, immobilized on carrier beads (protein, listed as Candida antarctica)
chain: LPSGSDPAFSQPKSVLDAGLTCQGASPSSVSKPILLVPGTGTTGPQSFDSNWIPLSAQLGYTPCWISPPPFMLNDTQVNTEYMVNAITTLYAGSGNNKLPVLTWSQGGLVAQWGLTFFPSIRSKVDRLMAFAPDYKGTVLAGPLDALAVSAPSVWQQTTGSALTTALRNAGGLTQIVPTTNLYSATDEIVQPQVSNSPLDSSYLFNGKNVQAQAVCGPLFVIDHAGSLTSQFSYVVGRSALRSTTGQARSADYGITDCNPLPANDLTPEQKVAAAALLAPAAAAIVAGPKQNCEPDLMPYARPFAVGKRTCSGIVTP
modifications: immobilized on carrier beads
B2: T40A: CALB mutant with single mutation Thr40Ala (SEQ ID NO: 4) (protein)
chain: B1 chain with T40X
modifications: T40 Mutant

What was measured:
Format in all cases: biochemical
[1] = Enzyme-catalyzed acylation of 1,2-ethanediol with ethyl acetate as acyl donor (Example 2); conditions: for Maximum monoester yield: 1,2-ethanediol 20 mM in ethyl acetate (acyl donor and solvent), 29° C.; for Conversion at 3:1 (monoester:diester) / Conversion at 9:1 (monoester:diester): 1,2-ethanediol 20 mM in ethyl acetate; for Conversion at 3:1 (monoester:diester): product distribution 75%; for Conversion at 9:1 (monoester:diester): product distribution 90%
Method: (§1) Each diol was dissolved to a concentration of 20 mM together with 5 mM of 3-hexanone in ethyl acetate, ≧99% from Fluka, which was used as acyl donor and solvent. Reactions were started by adding 4 ml reaction solution to 20 mg enzyme carrier beads loaded with either wild-type or T40A mutated CALB. Reactions were run at 29° C. on a HLC rotating thermo block. Aliquots of 50 μl were taken, filtered through wool in a Pasteur pipette and diluted with 50 μl ethyl acetate prior to analysis. The 3-hexanon used as internal standard were present in the reaction solution throughout both reaction and analysis.
(§2) 5 mM 3-hexanone was used as internal standard in the reaction mixtures together with 20 mM diol. Aliquots were taken during the reaction by taking 50 μl of reaction sample. The samples were filtered though wool together with 50 μl ethyl acetate, thereby any remaining enzyme were removed and the reaction samples were diluted by a factor of 2 prior to analysis.
(§3) The reactions catalyzed by the T40A-mutant were rerun with 100 mg enzyme carrier beads for determination of maximum monoester yield. The reactions with 2-methyl-1,3-propanediol and 2-phenyl-1,3-propanediol were rerun at 100 mM concentration of diol and 50 mg enzyme carrier beads, both with CALB wild type and CALB T40A-mutant. This was done in order to determine the enantiomeric excess.
(§4) All reactions were analyzed on GC, Hewlett Packard 5890 series II. Two different 25 m×0.32 mm WCOT fused silica columns were used, depending on the different substrates and products that were analyzed. A polar GC-column with CP Chirasil-Dex CB coating was used for the reactions with 1,2-ethanediol and 1,3-propanediol. A non-polar GC-column with CP-SIL 5CB coating was used for the reactions with 1,4-butanediol, 2-methyl-1,3-propanediol and 2-phenyl-1,3-propanediol.
(§5) The response factor for each diol was determined in relationship to 3-hexanone. When all diol and mono-ester had converted to di-ester, the response factor for the di-ester could be determined in relationship to […]. The concentration of mono-ester in each reaction was determined by subtracting the concentration of di-ester from the starting concentration of diol.
(§6) A great difference in concentration between acyl donor and diol was accomplished in the reactions by using ethyl acetate as solvent and acyldonor and a diol concentration of 20 mM. Therefore the reactions was considered to irreversible, following the reaction scheme:
(§7) [formula] A, B and C corresponds to diol, monoester and diester, respectively. k1 and k2 respectively corresponds to the reaction rates of the acylation of diol and monoester.
(§8) The reaction rates are dependent on enzyme concentrations and the kcat/KM towards the substrates. By fitting the concentrations measured over time into the equations and using the enzyme concentration determined by active site titration, the following results were obtained.

[2] = Enzyme-catalyzed acylation of 1,3-propanediol with ethyl acetate as acyl donor (Example 2); conditions: for Conversion at 3:1 (monoester:diester) / Conversion at 9:1 (monoester:diester) / Maximum monoester yield: 1,3-propanediol 20 mM in ethyl acetate; for Maximum monoester yield: 29° C.
Method: as §1, §2, §3, §4, §5, §6, §7, §8

[3] = Enzyme-catalyzed acylation of 2-methyl-1,3-propanediol with ethyl acetate as acyl donor (Example 2); conditions: for Conversion at 3:1 (monoester:diester) / Maximum monoester yield: 2-Me-1,3-propanediol 20 mM in ethyl acetate; for Maximum monoester yield: 29° C.
Method: as §1, §2, §3, §4, §5, §6, §7, §8

[4] = Enzyme-catalyzed acylation of 2-phenyl-1,3-propanediol with ethyl acetate as acyl donor (Example 2); conditions: 2-Ph-1,3-propanediol 20 mM in ethyl acetate; for Maximum monoester yield: 29° C.
Method: as §1, §2, §3, §4, §5

[5] = Enzyme-catalyzed acylation of 1,4-butanediol with vinyl butyrate as acyl donor (Example 3); conditions: 1,4-butanediol 10 mM, 200 mM vinyl butyrate in MTBE, 29° C.
Method: (§9) Each diol was dissolved to a concentration of 10 mM together with 2 mM of decane ≧98% from Fluka and 200 mM vinyl butyrate >99% from Fluka in MTBE 99.5% from Lab-Scan, which was used as acyl donor and solvent. Reactions were started by adding 4 ml reaction solution to 20 mg enzyme carrier beads loaded with either wild-type or T40A mutated CALB. Reactions were run at 29° C. on a HLC rotating thermo block. Aliquots of 50 μl were taken, filtered through wool in a Pasteur pipette and diluted with 50 μl ethyl acetate prior to analysis. The decane used as internal standard were present in the reaction solution throughout both reaction and analysis.
(§10) All reactions were analyzed on GC, Hewlett Packard 5890 series II. A 25 m×0.32 mm WCOT fused silica non-polar GC-column with CP-SIL 5CB coating was used for the reactions.
(§11) The response factor for each diol was determined in relationship to decane. When all diol and mono-ester had converted to di-ester, the response factor for the di-ester could be determined in relationship to decane. The concentration of mono-ester in each reaction was determined by subtracting the concentration of di-ester from the starting concentration of diol.

[6] = Enzyme-catalyzed acylation of 2-methyl-1,3-propanediol with vinyl butyrate as acyl donor (Example 3); conditions: 2-methyl-1,3-propanediol 10 mM, 200 mM vinyl butyrate in MTBE, 29° C.
Method: as §9, §10, §11

[7] = Acylation of 1,2-ethanediol in competition with 1-butanol (Example 4)
Method: (§12) Additionally, 1-butanol, ≧99.5% from Riedel-de Haën, was used as a competing substrate.
(§13) 25 mM decane ≧98% from Fluka, was used as internal standard.
(§14) Two different acyl donors were used:
(§15) Ethyl acetate, ≧99% from Fluka, used as both solvent and acyl donor
(§16) 1 M Vinyl butyrate, >99% from Fluka, together with in MTBE, 99.5% from Lab-Scan, used as solvent.
(§17) Each diol was dissolved to a concentration of 100 mM together with 25 mM of decane in ethyl acetate, ≧99% from Fluka, used as acyl donor and solvent. Reactions were started by adding 3 ml reaction solution to 10 mg enzyme carrier beads loaded with wild-type CALB or 20 mg carrier beads loaded with T40A mutated CALB. Reactions were run at 29° C. in a temperature bath consisting of a HETO thermostat coupled to a Bom-roerder combined temperature bath and magnetic stirrer. 25 mM decane was used as internal standard were present in the reaction solution throughout both reaction and analysis. Aliquots of 60 μl were taken, filtered through wool in a Pasteur pipette together with 540 μl ethyl acetate prior to analysis. The filtration through wool removed any remaining enzyme from the reaction solution, and the reaction samples were diluted by a factor of 10 prior to analysis.
(§18) All reactions were analyzed on GC, Hewlett Packard 5890 series II. Two different 25 m×0.32 mm WCOT fused silica columns were used, depending on the different substrates and products that were analyzed. A polar GC-column with CP Chirasil-Dex CB coating was used for the reactions with 1,2-ethanediol. A non-polar GC-column with CP-SIL 5CB coating was used for the reactions with 1,4-butanediol.
as §11

[8] = Acylation of 1,4-butanediol in competition with 1-butanol (Example 4)
Method: as §12, §13, §14, §15, §16, §17, §18, §11

[9] = 2-methyl-1,3-propanediol, ethyl acetate

Molecule | Maximum monoester yield [1] [%] | Conversion at 3:1 (monoester:diester) [1] [%] | Conversion at 9:1 (monoester:diester) [1] [%] | Selectivity diol/monoester ([1]; 1,2-ethanediol, ethyl acetate) | Conversion at 3:1 (monoester:diester) [2] [%] | Conversion at 9:1 (monoester:diester) [2] [%] | Maximum monoester yield [2] [%] | Conversion at 3:1 (monoester:diester) [3] [%] | Maximum monoester yield [3] [%] | Selectivity diol/monoester [3, 9] | Conversion at 3:1 (monoester:diester) [4] [%] | Maximum monoester yield [4] | Maximum monoester yields [5] [%] | Maximum monoester yields [6] [%] | Initial reaction rates ([7]; ethyl acetate) [mol/g/min] | Initial reaction rates ([7]; vinyl butyrate) [mol/g/min] | Initial reaction rates ([8]; ethyl acetate) [mol/g/min] | Initial reaction rates ([8]; vinyl butyrate) [mol/g/min] | other results
B1 | 43 | 17 | <9 | 1.9 | 19 | 10 | 33 | 30 | 42 | 1.5 | 46 | 52% | 25 | 34 | 0.081 | 0.41 | 0.065 | 0.16 | Maximum monoester yield ([1]; listed as wild type): 43%; Conversion at 3:1 (monoester:diester) ([1]; listed as wild type): 17%; Conversion at 9:1 (monoester:diester) ([1]; listed as wild type): 9%; Selectivity diol/monoester ([2]; 1,3-propanediol, ethyl acetate, listed as wild type): 0.94; Selectivity diol/monoester ([2]; 1,3-propanediol, ethyl acetate, listed as wild type CALB): 0.9
B2 | 77 | 99 | 78 | 7.7 | 22 | 19 | 50 | 55 | 55 | 2.6 | >95 | 55-65% | 44 | 56 | 0.002 | 0.065 | 0.0008 | 0.016 | Conversion at 3:1 (monoester:diester) ([1]; listed as T40A CALB): 99%; Conversion at 9:1 (monoester:diester) ([1]; listed as T40A CALB): 78%; Selectivity ratio diol/monoester T40A/WT ([1]; 1,2-ethanediol, ethyl acetate): 4.0; Selectivity diol/monoester ([1]; 1,2-ethanediol, ethyl acetate, listed as T40A CALB): 7.6; Selectivity diol/monoester ([2]; 1,3-propanediol, ethyl acetate): 2.4; Selectivity ratio diol/monoester T40A/WT ([2]; 1,3-propanediol, ethyl acetate): 2.6; Selectivity ratio diol/monoester T40A/WT [3, 9]: 1.7; Selectivity diol/monoester ([3]; 2-methyl-1,3-propanediol, ethyl acetate, listed as T40A CALB): 2.5; Rate ratio, T40A/WT ([7]; ethyl acetate): 2.5%; Selectivity towards diol over 1-butanol, compared with wild type CALB ([7]; ethyl acetate as acyl donor and solvent (FIG. 9A)): higher; Rate ratio, T40A/WT ([7]; vinyl butyrate): 16%; Selectivity towards diol over 1-butanol, compared with wild type CALB ([7]; vinyl butyrate, MTBE (FIG. 10A)): higher; Rate ratio, T40A/WT ([8]; ethyl acetate): 1.2%; Selectivity towards diol over 1-butanol, compared with wild type CALB ([8]; ethyl acetate as acyl donor and solvent (FIG. 9B)): higher; Rate ratio, T40A/WT ([8]; vinyl butyrate): 9.6%; Selectivity towards diol over 1-butanol, compared with wild type CALB ([8]; vinyl butyrate, MTBE (FIG. 10B)): higher

— patent US8715970B2, “Enzymatically catalyzed method of preparing mono-acylated polyols” (BASF SE, priority 2009, dated 2014)
